Results on 94 variants are retold here after the supplement of paper PMC10567573.

B1: C1orf55 (parent)
chain: FTSPDYQQQCHEMAERLEDSVLKG
B2: HSP90AB1 (parent)
chain: QVANSAFVERVRKRGFEVVYMTEP
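Further: lentivirally expressed fusions sorted by FACS into six bins by GFP to DsRed ratio, PSI derived from sequencing read proportions per bin multiplied by bin number.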

The variants in the first data set derive from B1. Description: protein stability index of a GFP-peptide fusion (GPS, HEK-293T) (PSI 1-6); higher = more stable. The following applies: c terminus: a fixed tail appended.
For the variant FTSPDYQQQCGEMAERLEDSVLKG [H11G], the protein stability index is 2.35.
On to FTSPDYQQQCHEMIERLEDSVLKG [A14I], for which the protein stability index was 2.45.
On to FTRPDYQQQCHEMAERLEDSVLKG [S3R], for which the protein stability index amounted to 2.54.
Same read-out and setting: the figure for FTSPDYQQQCHEMAERPEDSVLKG [L17P] is 2.66; for ITSPDYQQQCHEMAERLEDSVLKG [F1I] it is 4.68; for PTSPDYQQQCHEMAERLEDSVLKG [F1P] it is 5.18.
As to FYSPDYQQQCHEMAERLEDSVLKG [T2Y], the protein stability index turned out to be 2.88.
On to FESPDYQQQCHEMAERLEDSVLKG [T2E], for which the protein stability index worked out at 4.24.
The same measure, in the same setting: the figure for FTSPDYVQQCHEMAERLEDSVLKG [Q7V] is 2.02; for FTSPDYQQQCHRMAERLEDSVLKG [E12R] it is 1.87.
Regarding FTSPDYQQQCHEMAERLIDSVLKG [E18I], the protein stability index was found to be 1.52.
For FTSPDYQQQCHEMAERLEDDVLKG [S20D], the protein stability index was 2.3.
As for FTSPDYQQQCHEMAERLEDVVLKG [S20V], the protein stability index was determined as 2.7.
For FTSPDYQHQCHEMAERLEDSVLKG [Q8H], the protein stability index is 2.35.
As for FTSPDYQDQCHEMAERLEDSVLKG [Q8D], the protein stability index worked out at 3.9.
Turning to FTSPDYQQGCHEMAERLEDSVLKG [Q9G], the protein stability index is 1.92.
Consider FTSPDYQQQCHEDAERLEDSVLKG [M13D], for which the protein stability index turned out to be 2.55.

Another data set covers variants of B2. The data set is described as above. Particulars: c terminus: a fixed tail appended.
Take QVANSAFVERVRKRGFEVVYMTRP [E23R]: the protein stability index was 2.47.
For QVANSAFVERVRKRGFEVVYMTVP [E23V], the protein stability index was determined as 2.38.
On to QVANSAFVERVRKRGFEVVYMTMP [E23M], for which the protein stability index was found to be 2.56.
Take QVANSAFVERVRKRGFEVVYMTNP [E23N]: the protein stability index came to 1.83.
With QVANSAFVERVRKRGFEVVYMTYP [E23Y], the protein stability index is 1.66.
In the case of QVANSAFVERVRKRGFEVVYMTQP [E23Q], the protein stability index amounted to 1.9.
For the variant QVANSAFVERVRKRGFEVVYMTAP [E23A], the protein stability index was 2.88.
For QVANSAFVERVRKRGFEVVYMTHP [E23H], the protein stability index amounted to 1.95.
QVANSAFVERVRKRGFEVVYMTFP [E23F]: the protein stability index was found to be 1.62.
On the same count and under the same terms, the figure for QVANSAFVERVRKRGFEVVYMTTP [E23T] is 1.89; for QVANSAFVERVRKRGFEVVYMTIP [E23I] it is 1.69; for QVANSAFVERVRKRGFEVVYMTCP [E23C] it is 2.67.
For QVANSAFVERVRKRGFEVVYMTGP [E23G], the protein stability index amounted to 1.78.
Same read-out and setting: the same measure for QVANSAFVERVRKRGFEVVYMTLP [E23L]: 1.16; for QVANSAFVERVRKRGFEVVYMTDP [E23D]: 2.81; for QVANSAFVERVRKRGFEVVYMTKP [E23K]: 2.13.
With QVANSAFVERVRKRGFEVVYMTPP [E23P], the protein stability index was found to be 2.19.
Same read-out and setting: the figure for QVANSAFVERVRKRGFEVVYMTSP [E23S] is 2.54; for QVANSAFVERVRKRGFEVVYMTWP [E23W] it is 2.14; for QVANSAFVERVRKRGFEVVYITEP [M21I] it is 1.98.
As to QVANSAFVERVRKRGFEVVYNTEP [M21N], the protein stability index worked out at 2.77.
Same read-out and setting: the figure for QVANSAFVERVRKRGFEVVYCTEP [M21C] is 2.41; for QVANSAFVERVRKRGFEVVYYTEP [M21Y] it is 2.04; for QVANSAFVERVRKRGFEVVYDTEP [M21D] it is 2.96.
Regarding QVANSAFVERVRKRGFEVVYLTEP [M21L], the protein stability index is 2.6.
Same read-out and setting: the same measure for QVANSAFVERVRKRGFEVVYFTEP [M21F]: 2.06.
Regarding QVANSAFVERVRKRGFEVVYGTEP [M21G], the protein stability index came out at 2.65.
Same read-out and setting: the same measure for QVANSAFVERVRKRGFEVVYWTEP [M21W]: 3.09; for QVANSAFVERVRKRGFEVVYHTEP [M21H]: 3.37.
Regarding QVANSAFVERVRKRGFEVVYQTEP [M21Q], the protein stability index stood at 3.1.
QVANSAFVERVRKRGFEVVYPTEP [M21P]: the protein stability index is 2.8.
As for QVANSAFVERVRKRGFEVVYATEP [M21A], the protein stability index turned out to be 2.11.
For the variant QVANSAFVERVRKRGFEVVYETEP [M21E], the protein stability index is 3.06.
The same measure, in the same setting: the same measure for QVANSAFVERVRKRGFEVVYRTEP [M21R]: 3.33; for QVANSAFVERVRKRGFEVVYTTEP [M21T]: 3.05; for QVANSAFVERVRKRGFEVVYMPEP [T22P]: 2.38.
In the case of QVANSAFVERVRKRGFEVVYMSEP [T22S], the protein stability index worked out at 2.7.
As to QVANSAFVERVRKRGFEVVYMAEP [T22A], the protein stability index was found to be 2.89.
With QVANSAFVERVRKRGFEVVYMFEP [T22F], the protein stability index came out at 1.68.
The same measure, in the same setting: the figure for QVANSAFVERVRKRGFEVVYMNEP [T22N] is 2.51.
QVANSAFVERVRKRGFEVVYMIEP [T22I]: the protein stability index turned out to be 1.81.
QVANSAFVERVRKRGFEVVYMYEP [T22Y]: the protein stability index is 1.95.
Still for that read-out and setting: the same measure for QVANSAFVERVRKRGFEVVYMMEP [T22M]: 1.91.
As to QVANSAFVERVRKRGFEVVYMVEP [T22V], the protein stability index amounted to 1.63.
Regarding QVANSAFVERVRKRGFEVVYMEEP [T22E], the protein stability index came to 2.56.
Still for that read-out and setting: the same measure for QVANSAFVERVRKRGFEVVYMQEP [T22Q]: 2.54; for QVANSAFVERVRKRGFEVVYMHEP [T22H]: 1.91.
In the case of QVANSAFVERVRKRGFEVVYMWEP [T22W], the protein stability index was found to be 1.55.
As to QVANSAFVERVRKRGFEVVYMGEP [T22G], the protein stability index turned out to be 2.
With QVANSAFVERVRKRGFEVVYMLEP [T22L], the protein stability index is 1.7.
On to QVANSAFVERVRKRGFEVVYMCEP [T22C], for which the protein stability index was 2.12.
For the variant QVANSAFVERVRKRGFEVVYMTED [P24D], the protein stability index was 3.18.
Take QVANSAFVERVRKRGFEVVYMTEC [P24C]: the protein stability index came out at 2.2.
On the same count and under the same terms, the same measure for QVANSAFVERVRKRGFEVVYMTET [P24T]: 2.48.
In the case of QVANSAFVERVRKRGFEVVYMTEI [P24I], the protein stability index turned out to be 2.03.
The same measure, in the same setting: the figure for QVANSAFVERVRKRGFEVVYMTEM [P24M] is 2.14; for QVANSAFVERVRKRGFEVVYMTEF [P24F] it is 1.63.
Same read-out and setting: the figure for QVANSAFVERVRKRGFEVVYMTEH [P24H] is 2.1; for QVANSAFVERVRKRGFEVVYMTEY [P24Y] it is 1.89; for QVANSAFVERVRKRGFEVVYMTEG [P24G] it is 2.42.
For the variant QVANSAFVERVRKRGFEVVYMTEE [P24E], the protein stability index was 3.13.
Take QVANSAFVERVRKRGFEVVYMTER [P24R]: the protein stability index was 2.
With QVANSAFVERVRKRGFEVVYMTEQ [P24Q], the protein stability index is 2.52.
As for QVANSAFVERVRKRGFEVVYMTEL [P24L], the protein stability index was determined as 1.21.
On to QVANSAFVERVRKRGFEVVYMTEK [P24K], for which the protein stability index was found to be 2.44.
Turning to QVANSAFVERVRKRGFEVVYMTEN [P24N], the protein stability index worked out at 2.32.
With QVANSAFVERVRKRGFEVVYMTEW [P24W], the protein stability index came to 2.09.
As to QVANSAFVERVRKRGFEVVIMTEP [Y20I], the protein stability index came to 1.78.
The same measure, in the same setting: the same measure for QVANSAFVERVRKRGFEVVWMTEP [Y20W]: 1.96; for QVANSAFVERVRKRGFEVVKMTEP [Y20K]: 2.6; for QVANSAFVERVRKRGFEVVTMTEP [Y20T]: 2.69.
QVANSAFVERVRKRGFEVVLMTEP [Y20L]: the protein stability index was found to be 2.22.
Take QVANSAFVERVRKRGFEVVNMTEP [Y20N]: the protein stability index was determined as 3.62.
QVANSAFVERVRKRGFEVVVMTEP [Y20V]: the protein stability index was 3.05.
Same read-out and setting: the same measure for QVANSAFVERVRKRGFEVVQMTEP [Y20Q]: 3.41; for QVANSAFVERVRKRGFEVVPMTEP [Y20P]: 2.81; for QVANSAFVERVRKRGFEVVRMTEP [Y20R]: 3.23.
